The record followed here is patent US20240425569A1 (VISTERRA, published 2024).

The target in test [1] is T1, EDIII-DV4 (E protein domain III of dengue virus serotype DV-4) (dengue virus serotype DV-4, UniProt P09866 572-679).
T1 construct: also called DENV-4
Nature of the test: competition ELISA; column 'EDIII-DV4 [1/7]'. Background: An ELISA detects its analyte on a solid surface through an enzyme-linked reagent.

The target in test [2] is T2, New Guinea/1944 (NGC)* (serotype II EDIII) (Dengue virus 2).
T2 construct: isolated EDIII protein; also called EDIII of DENV-2 NGC
Nature of the test: Kd table, method not stated; Ag DENV-2 NGC.

The target in test [3] is T3, Nicaragua/2010 (serotype III EDIII).
T3 construct: also called ED3-DV3/Nicaragua10; DENV-3 Nic
T3 E protein domain III (EDIII): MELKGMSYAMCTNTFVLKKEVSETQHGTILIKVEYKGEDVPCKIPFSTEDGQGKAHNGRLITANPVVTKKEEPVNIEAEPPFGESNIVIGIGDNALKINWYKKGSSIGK

In test [4] the target is T4, Singapore/2008 (serotype II EDIII).
T4 construct: also called ED3-DV2/Sing08; DENV-2 Sing
Nature of the test: Kd table, method not stated; Ag DENV-2 Sing.

Test [5] addresses T5, Singapore/2010 (serotype IV EDIII).
T5 construct: also called ED3-DV4/Sing10; DENV-4 Sing
T5 E protein domain III (EDIII): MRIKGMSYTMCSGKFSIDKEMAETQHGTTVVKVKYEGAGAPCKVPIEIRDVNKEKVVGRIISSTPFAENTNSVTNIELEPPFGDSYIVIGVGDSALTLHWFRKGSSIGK
Nature of the test: Kd table, method not stated; Ag DENV-4 Sing.

Test [6] addresses T6, Brazil/2011 (serotype IV EDIII).
T6 E protein domain III (EDIII): T5 E protein domain III (EDIII) with V33I, A38T
Nature of the test: SPR; row Brazil/2011, serotype IV, genotype I.

The target in test [7] is T7, Hawaii/1944* (serotype I EDIII) (Dengue virus 1).
T7 construct: isolated EDIII protein; also called EDIII of DENV-1 Hawaii/1944
Nature of the test: SPR; row Hawaii/1944*, serotype I, genotype I.

In test [8] the target is T8, Vietnam/2008 (serotype I EDIII).
T8 construct: also called ED3-DV1/Viet08
T8 E protein domain III (EDIII): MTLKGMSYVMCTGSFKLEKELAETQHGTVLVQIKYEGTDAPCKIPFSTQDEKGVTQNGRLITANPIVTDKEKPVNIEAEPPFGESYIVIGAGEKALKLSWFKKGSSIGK

Test [9] deals with T9, Mexico/2007 (serotype I EDIII).
T9 construct: also called ED3-DV1/Mexico07
T9 E protein domain III (EDIII): T8 E protein domain III (EDIII) with M6T, L21V, I33V, A78T, I89V

Test [10] addresses T7, Hawaii/1944* (serotype I EDIII). Nature of the test: ELISA; row Hawaii/1944*, serotype I, genotype I.
Test [11] deals with T10, Malaysia/2005 (serotype I EDIII).
T10 construct: also called ED3-DV1/Malaysia05
T10 E protein domain III (EDIII): T8 E protein domain III (EDIII) with M6I, S14P, L21V, I33V, T48S, I61V, I89V

Test [12] addresses T11, Cambodia/2008 (serotype III EDIII).
T11 construct: Genotype II; also called ED3-DV3/Cambodia08
T11 E protein domain III (EDIII): T3 E protein domain III (EDIII) with T12L, V40A, N57S, N94K
Nature of the test: SPR; row Cambodia/2008, serotype III, genotype II. A general note: Surface plasmon resonance follows binding to a sensor surface in real time, without labels.

Test [13] concerns the target T12, Thailand/1997 (serotype IV EDIII).
T12 E protein domain III (EDIII): T5 E protein domain III (EDIII) with K19R, A38T, N69S
Nature of the test: SPR; row Thailand/1997, serotype IV, genotype III.

Test [14] concerns the target T13, Peru/1995 (serotype II EDIII).
T13 construct: also called ED3-DV2/Peru95; DENV-2 Peru
Nature of the test: SPR; row Peru/1995, serotype II, genotype American.

Test [15] addresses T14, Singapore/2009 (serotype III EDIII).
T14 construct: also called ED3-DV3/Sing09; DENV-3 Sing
T14 E protein domain III (EDIII): T3 E protein domain III (EDIII) with T12Q, T14A, V40A, N94K

The target of test [16] is T13, Peru/1995 (serotype II EDIII). Put plainly: ELISA; row Peru/1995, serotype II, genotype American.
Test [17] deals with T15, Vietnam/2007 (serotype II EDIII).
T15 construct: Genotype Asian II; also called ED3-DV2/Viet07
T15 E protein domain III (EDIII): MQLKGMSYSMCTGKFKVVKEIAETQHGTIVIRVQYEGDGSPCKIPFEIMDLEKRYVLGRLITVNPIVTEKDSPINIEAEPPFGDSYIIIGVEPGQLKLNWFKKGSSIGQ
Nature of the test: SPR; row Vietnam/2007, serotype II, genotype Asian II.

Test [18] deals with T16, EDIII-DV2 (E protein domain III of dengue virus serotype DV-2) (dengue virus serotype DV-2, UniProt P14337 573-677).
T16 construct: also called DENV-2; EDIII of DV-2

Test [19] concerns the target T2, New Guinea/1944 (NGC)* (serotype II …). Nature of the test: SPR; row New Guinea/1944 (NGC)*, serotype II, genotype Asian I.

Residue numbers refer to the chain shown, from its start. Where only a bound is given, the exact number is not on record here.

B1: antibody D88 (antibody, V domains shown)
VH: QVQLVQSGAEVKKPGASVKVSCKAGFNIKDVYMSWVRQAPEQGLEWMGRIDPENGDTKYDPKLQGRVTMTADTSTNTAYMELRSLRSDDTAVYYCARGWEGFAYWGQGTLVTVSS
VL: DIVMTQSPASLAVSLGERATISCRASENVDKYGNSFMHWYQQKPGQPPKLLIYRASELQWGVPDRFSGSGSGTDFTLTISSLQAEDVAVYYCQRSNEVPWTFGQGTKLEIK
notes: also called mAb D88
For B1, the dissociation constant Kd in test [1] is 3120 pM; in test [2] it was under 100 pM; in [3], 3300 pM; in [4], under 100 pM; in test [5], 8400 pM; in [6], 7900 pM. Further, the Kd is 41 pM in [7]; 31 pM in test [8]; under 100 pM in test [9]; under 100 pM in test [10]; under 100 pM in test [11]; 2470 pM in [12]. The Kd in [13] is over 300000 pM; in test [14] it was 12 pM; in test [15], 350 pM; in test [16] it was under 100 pM; in [17], 14 pM; in test [18], 16 pM. The molecule further registered a Kd in [19] of 16 pM.

As a reminder, the Kd is the concentration at which binding is half-saturated. A lower Kd goes with a tighter complex.
